Measured values published in patent publication US20200325480A1 (NOGRA PHARMA, published 2020).

Target: T1, TGF-β1 R1 (mouse, UniProt Q64729 30-503)
T1 construct: Endogenous protein in total cell extracts; It is seen only as part of the 102 Kda band on the anti-Smad7 Western blot; also called TGF-β1 receptor R1
T1 sequence (looked up): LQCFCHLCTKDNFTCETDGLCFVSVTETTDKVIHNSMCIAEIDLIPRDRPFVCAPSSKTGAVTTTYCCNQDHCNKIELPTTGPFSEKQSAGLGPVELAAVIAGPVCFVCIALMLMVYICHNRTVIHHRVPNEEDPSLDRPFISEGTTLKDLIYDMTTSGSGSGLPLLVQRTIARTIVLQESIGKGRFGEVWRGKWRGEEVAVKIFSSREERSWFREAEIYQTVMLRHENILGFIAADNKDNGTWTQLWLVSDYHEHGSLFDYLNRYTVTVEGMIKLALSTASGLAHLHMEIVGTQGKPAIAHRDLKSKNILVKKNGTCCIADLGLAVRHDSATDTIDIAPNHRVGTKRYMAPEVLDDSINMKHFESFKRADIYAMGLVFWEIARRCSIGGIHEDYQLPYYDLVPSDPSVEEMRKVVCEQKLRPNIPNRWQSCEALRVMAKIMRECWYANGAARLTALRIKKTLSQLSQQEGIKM
Experiment: Western blot of LPMC total protein extracts with anti-Smad7 antibody (FIG. 3)

B1: Smad7 (other, mouse, UniProt O35253 1-426, looked up)
chain: MFRTKRSALVRRLWRSRAPGGEDEEEGVGGGGGGGELRGEGATDGRAYGAGGGGAGRAGCCLGKAVRGAKGHHHPHPPTSGAGAAGGAEADLKALTHSVLKKLKERQLELLLQAVESRGGTRTACLLLPGRLDCRLGPGAPASAQPAQPPSSYSLPLLLCKVFRWPDLRHSSEVKRLCCCESYGKINPELVCCNPHHLSRLCELESPPPPYSRYPMDFLKPTAGCPDAVPSSAETGGTNYLAPGGLSDSQLLLEPGDRSHWCVVAYWEEKTRVGRLYCVQEPSLDIFYDLPQGNGFCLGQLNSDNKSQLVQKVRSKIGCGIQLTREVDGVWVYNRSSYPIFIKSATLDNPDSRTLLVHKVFPGFSIKAFDYEKAYSLQRPNDHEFMQQPWTGFTVQISFVKGWGQCYTRQFISSCPCWLEVIFNSR
notes: Endogenous protein in total cell extracts, detected by Western blot with a rabbit anti-human Smad7 antibody; also called free Smad7 (47 Kda band)
  binding result: binds
